According to the supplement of paper PMC12764529:
± gives the half width of the 95% confidence interval.

assay: folding stability dG unfold (combined trypsin and chymotrypsin); higher = more stable
Experimental: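 Folding stability of de novo designed mini-proteins (<80 aa, no Cys; designed by TrROS, TrMRF, ProteinMPNN and the joint model) was measured by cDNA display proteolysis with trypsin and chymotrypsin. Each protease was used at 11 concentrations in a threefold dilution series plus a no-protease condition. K50 was inferred by Bayesian fitting of sequencing counts, and dG unfold was derived against a sequence-predicted unfolded-state K50 (Tsuboyama et al. method). Sequences shown include variable-length N-terminal GS-type padding (SAGGSAGG...) inside a display construct carrying a PA tag. Rows were kept only if the AF2 dimer inter-PAE was >15, to exclude likely homo-oligomers.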

| Sequence | folding stability dG unfold |
| --- | --- |
| SAGGSAGGSANPRTITVQYPVDPNGKPLPAEELADELQNEPFKVTDPQWNPEDGYVEDTIEVSAGGSAGGSA [r18_466_TrROS] | < -1 kcal/mol |
| SAGGKTVEIPIPGPLTIETAKDLASKLAEEGHEDVPIKITMWHWKREPNGKPERHRHTHTYKLKVPKSAGGS [r16_44_TrROS] | < -1 kcal/mol |
| SAGGGMKKYTESTVPLPPGRPDVVERLRAEYPNLEVEREGPADTGTLPTTVKVPAPDGSPLASIELGSAGGS [r8_267_JUSTAS] | < -1 kcal/mol |
| SAGIVIPFEELKEFMSDEEIEDIAREFAQDNGYPPKKIEIEPHPNPGDWITIKAEPDNGNKAPIVFRLPSAG [r5_745_TrROS] | < -1 kcal/mol |
| SAGGSAGGSASSWTLLSTEKLGSKTRTTMNDPANGKTVTIETDPANGSKVVKVENKETEIESAGGSAGGSAG [r3_297_JUSTAS] | < -1 kcal/mol |
| SAGFEKIAEKLGVKPENLEIKDIEDKPVTVPDPKTGKPKERLVPVLYLEFYDPEVGKKVDAEIPLAEVASAG [r5_517_TrMRF] | < -1 kcal/mol |
| SAGGSAMFEVRKLSEDPSTGVTTELITLPDGKEVTVTTTTDSSGNPTVTVTFPDGTVLSLEEVELESAGGSA [r15_832_JUSTAS] | < -1 kcal/mol |
| SAGPLKPGKTIEVPMEFTSPSDIVDELEKLPGIKDIEPTGIEPEPNPDGPPRIRVPFTFKIPKDGEPLSAGG [r19_221_TrROS] | < -1 kcal/mol |
| SAGGSAGGQKIKIDDVQKNPGNGNYYVRIRPPGKPYEYQFPPGDSADDIADELELNGIDDIEVYSAGGSAGG [r6_83_TrROS] | < -1 kcal/mol |
| SAGGSAGGSAGGGPDWVLRRRTLEESSPVSTTPNPTGRRRTGYRTLVREEEVVLPPDLESAGGSAGGSAGGS [r10_524_JUSTAS] | < -1 kcal/mol |
| SAGGSAGGSAGKNVPFRWRIRDPKNGNEKTIDVPMDSPEDMNRAADELQKKFPGYKVEPYSAGGSAGGSAGG [r11_233_TrROS] | < -1 kcal/mol |
| SAGGSAMERRTFNLPADRVSPEVLLEKLKAVGLTPTEIKPVPDGVEVVVEYDPSKVEKLEKALKEGSAGGSA [r15_161_JUSTAS] | < -1 kcal/mol |
| SAGGSAGGPPMEPIPFRVRVDEVEHDPPNGNVVITIKDGDKNPHTINIPPEMAKNMPIEPGDELSAGGSAGG [r6_915_TrROS] | < -1 kcal/mol |
| SAGGSAGGSAIVEKIAKEFGFPAKIEVKRERNPGKWVVIPVRVRDPNGGKTWERKIHLPPNQSAGGSAGGSA [r18_313_TrROS] | < -1 kcal/mol |
| SAGMKITFPDGFKEIEVYEDPNYPYIEIPLPGGSIRYDLKDGPIEIEPPGDNRPIRFPIPPGDTITLPSAGG [r19_138_TrROS] | < -1 kcal/mol |
| SAGGSAFKVPPGNIKEEEDFKFKFPDGNNMKIKIIRYPGKKRLMMENPGNNEPQTMPVEDLKEMLQSAGGSA [r15_329_TrROS] | < -1 kcal/mol |
| SKSRPIEVEFRMPYPNGGPMRMRATVLINPDNGKIGIPMRMETPGKEREYPLPPSMMNNLAKTVLDKLGLSA [r9_1136_TrROS] | -0.789 ± 0.81 kcal/mol |
| SAGGSAPVIPVKSEEEAKEVAKAASPDKDLLFKYPKGNVKLITIDPKNGPKITVKETLPVSPEKALSAGGSA [r15_577_JUSTAS] | < -1 kcal/mol |
| SAGIKPGDPLIIKFNFPPEARDKIKKLLEDPGFTYENDPDKGSVSIVFPAADVDRLQDLPGISEIVPVSAGG [r19_212_TrROS] | < -1 kcal/mol |
| SAGMPPVRVVQAPSTVYTDPSPPTLTVESVFTGEGRLSTTSSTVPAPPELADLPAGAAVSRSFTVTVLPSAG [r5_714_JUSTAS] | < -1 kcal/mol |
| SAGGMKKRVEIPEELKKAYPDLVVEDQEVPEDSVDVTVRLPTADLKVPQVVLSPDGNPLRSFTLTSSPSAGG [r13_129_JUSTAS] | < -1 kcal/mol |
| SAGPKIEIEPLDWERDPGNGHMVIPVEISVKVPREENGRPPEQAEEKKESLVREFAREWAPKHGMPIHVSAG [r5_333_TrROS] | < -1 kcal/mol |

| Sequence | folding stability dG unfold |
| --- | --- |
| SAGGSAMIEVETRPLPTPRELVTVKFDSEELLPEVIEKLPGVEEVEVSESKGDGKPYYTATFVIPRSAGGSA [r15_344_JUSTAS] | < -1 kcal/mol |
| SAGGSAGGRVITLKEEELKKLIEEGKVDSVDVEKLPDGTVKAKPIIKEKEELSPKNKEKIFELKSAGGSAGG [r6_279_JUSTAS] | < -1 kcal/mol |
| SAGGSAGGSAGGMRDIAREFAEKNGDKNKPVRIKMPGGKKHNFTPDDIPDMPFDNWTIEPSAGGSAGGSAGG [r7_863_TrROS] | < -1 kcal/mol |
| SAGSVTATITLPSGETVTVDVAPDEERILTTPEGRLLRLTDVRPGAVAFTEGENFVPDEDGNLVPLSLLSAG [r5_417_JUSTAS] | < -1 kcal/mol |
| SAGGSEEFEFRDPFNGEEFEVTRDPNNGELDVEYPNGWKMRISITDDRFEIVEMKPVPPPPVDPDQKSAGGS [r16_687_TrROS] | < -1 kcal/mol |
| SAGGSAGGSAGDLGLEDDTFILKATYPDGTPATIPLKKSEISKISKDNIKSIEFYPKSKLSAGGSAGGSAGG [r11_779_JUSTAS] | < -1 kcal/mol |
| SAGIKEIAKKLGMPPNNIKIKNIQPQPRRKPDPEDGKPEPEPYPTVSVEIEAPGNGKKREASIPADEIQSAG [r5_517_TrROS] | < -1 kcal/mol |
| SAGGSAGGSAGGNIEIEVERNPENGYYTVEIKFNNPPIEIMVPRGMPKEQAKDWAKDLISAGGSAGGSAGGS [r10_192_TrROS] | < -1 kcal/mol |
| MTRTIVAEDMSIEEVKERIEALGAAEPEKGTTVVVEYPGNPEELKKLPIDKIEPREEPERESLVATKTFPAS [r1_467_JUSTAS] | < -1 kcal/mol |
| SAGGSAGGSAGIKVDQNPESNMFSVKIRNDGKEKTIEIDMPPGEPPDIDDLAKKLGIEVVSAGGSAGGSAGG [r11_1053_TrROS] | < -1 kcal/mol |
| SAGGSAGGSYKLGSKLIKEVTSEATPGPSTLETITLEDKTYPITLVGDSLNISPELKKAIELNSAGGSAGGS [r20_92_JUSTAS] | < -1 kcal/mol |
| SAGGSAGGSAMEAEATPIPLETEEFEIVVTILPGGTARVTTTPPEDGVPTESTVSVETVRALSAGGSAGGSA [r18_247_JUSTAS] | < -1 kcal/mol |
| SAGMDIYTETVVPLRVETDEEEIEEIIEKAKEEAEKKGYKPVEIPVETEPSPEGKTLVTIPVKLLKKAPSAG [r14_109_JUSTAS] | < -1 kcal/mol |
| SAGGSAPEPYTFKMKNPKGPPVEITITRNPNNGNYMISVEMPGPGKKHEGPMPMEDLNNLPGLEPVSAGGSA [r15_622_TrROS] | < -1 kcal/mol |
| SAGGMVTIEITDIPEDDPEKAIETAKELVEKIKKEGPPLKVKIKGNTPVFEEVAAELKKLGVETDLESAGGS [r16_450_JUSTAS] | < -1 kcal/mol |
| SAGMIVKTVTVSPEVPPEEVAERLKRENPWIKEVKPEKVTSVTVPNPGKTLLTVTITIELDDVPEEVLKSAG [r5_326_JUSTAS] | < -1 kcal/mol |
| SAKITITLPNGKKIEIELPEGYEIVEVTFDKETGVITIKVKNKETGKEYKITLTFNEDGSLTISIEEVDSAG [r14_311_TrROS_Hall] | > 6 kcal/mol |
| SAGGSAGGSAAPIPPDQSATSLTLLPDGTVRKTTTTYPPPEFVTTTTTTIPISPEEGAAAGSAGGSAGGSAG [r3_437_JUSTAS] | < -1 kcal/mol |
| SAGGSAGGSAGGVVSPSSEPVEMTVEEVILETERVPESGESLRPLPVRRVLRTVTNFGLSAGGSAGGSAGGS [r10_122_JUSTAS] | < -1 kcal/mol |
| SAGGSAGGSAGGKRRKITIPFKMPDGRWHPIRANMSEEQLEDIVEHHPFFKPAIKKALKKSAGGSAGGSAGG [r7_637_TrROS] | < -1 kcal/mol |
| SAGGSVEISEEELEKLIEEGRVDKKEEYPEGVPSKKYETEKLGKELGKPITINVTTTPDGKAVAKVLKSAGG [r13_163_JUSTAS] | < -1 kcal/mol |
| SMTVITAEPNLPPEKKAAVEAVRERVKANPDKPMDADEIKEFIKEEFGDPNFTILKVTIIPKAPPVVALSSA [r9_620_JUSTAS] | < -1 kcal/mol |
